Assay results reported in patent US20260116983A1.

Key:
[1] = target: human uPAR displayed on the surface of MDA-MB-231 cells (human) (UniProt Q03405); experiment: cell-based or functional assay
[2] = target: human uPAR (recombinant protein used in ELISA and BLI) (human) (UniProt Q03405); experiment: ELISA, plate-coated human uPAR
[3] = target: human uPAR displayed on the surface of MDA-MB-231 cells (human) (UniProt Q03405); experiment: flow cytometry (FACS) on MDA-MB-231 cells

Sequence of human uPAR displayed on the surface of MDA-MB-231 cells (human) (Q03405 23-305): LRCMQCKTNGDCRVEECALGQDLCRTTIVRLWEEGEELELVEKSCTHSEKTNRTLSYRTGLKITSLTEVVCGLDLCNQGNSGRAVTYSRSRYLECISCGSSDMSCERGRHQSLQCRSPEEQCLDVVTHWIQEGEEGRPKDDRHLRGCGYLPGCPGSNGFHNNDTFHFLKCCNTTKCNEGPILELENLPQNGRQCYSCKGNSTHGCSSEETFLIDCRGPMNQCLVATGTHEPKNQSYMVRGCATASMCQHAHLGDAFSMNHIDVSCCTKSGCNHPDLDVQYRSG
Sequence of human uPAR (recombinant protein used in ELISA and BLI) (human) (Q03405 23-305 limits assumed): as the sequence (Q03405 23-305) above

Row | ADCC NK-92 EC50 [1] | ADCC NK-92 Max % [1] | ADCC PBMCs EC50 [1] | ADCC PBMCs Max % [1] | Adhesion blocking EC50 [1] | EC50 [2] | Cellular recognition Max % [3] | EC50 [3] | Binder | ADC Cytotoxicity Max % [1]
1 | 22.5 nM | 33.9% | 8.65 nM | 65.5% | 3500 nM | 0.26 nM | 2200% | 16.6 nM | 2G10 (antibody, from another filing, V domains shown) VH: QVQLQQSGPGLVKPSQTLSLTCAISGDSVSSNSAAWNWIRQSPSRGLEWLGRTYYRSKWYNDYAVSVKSRIIINPDTSKNQFSLQLNSVTPEDTAVYYCARDPGGPLDDSFDIWGQGTMVTVSS VL: DVVMTQSPLSLPVTPGEPASISCRSSQSLLRSNGYNYLDWYLQKPGQSPQLLIYLGSIRASGVPDRFSGSGSGTDFTLRISRVEAEDVGVYYCMQALQTPFTFGQGTKLEIKR | 4.9%
2 | – | – | – | – | 810 nM | 0.28 nM | 971% | 292 nM | 3C6 (antibody, from another filing, V domains shown) VH: QVQLQQWGAGLLKPSETLSLTCAVYGGSFSGYYWSWIRQPPGKGLEWIGEINHSGSTNYNPSLKSRVTISVDTSKNQFSLKLSSVTAADTAVYYCARGRRFGDFDYWGQGTLVTVSS VL: QPVLTQPPSVSVAPGKTARITCGGNNIGSKSVHWYQQKPGQAPVLVVYDDSDRPPGIPERFSGSNSGNTATLTISRVEAGDEADYYCQVWDSSSDHSPFGTGTKVTVLG | 1.42%
